Measured values: PMC10413271
“And” between values parts separate entries of the source, which are not always exact repeats. Equal values may be shown once.

Experiments:
[1] = target: NiV full-length glycoprotein G (NiV-G) expressed from Ad5-NiVG (Nipah virus, Bangladesh strain (NiV-Bd)); test: Western blot (ProteinSimple capillary system)
[2] = target: NiV-soluble external domain glycoprotein G (NiV-Ge) expressed from Ad5-NiVGe (Nipah virus, Bangladesh strain (NiV-Bd)); test: Western blot (ProteinSimple capillary system)

Substance | stoichiometry N [1] | stoichiometry N [2]
NiV full-length glycoprotein G (NiV-G) expressed from Ad5-NiVG (natural protein) | 2 | 
NiV-soluble external domain glycoprotein G (NiV-Ge) expressed from Ad5-NiVGe (domain or fragment) |  | 2 and 4
